Experimental data: patent US20220160842A1, “METHOD OF TREATING INFECTIVE ENDOCARDITIS” (priority 2019, published 2022)

What was measured:
S. lugdunensis = assay: MIC by broth microdilution; assay type: cell-based, Staphylococcus lugdunensis; settings: S. lugdunensis, N=49
Description: (§1) Minimal inhibitory concentrations (MICs) of exebacase against staphylococci were determined by broth microdilution (BMD) using a nonstandard antimicrobial susceptibility testing (AST) medium comprised of cation-adjusted Mueller Hinton broth (caMHB) supplemented with horse serum (Sigma Aldrich) and dithiothreitol (DTT; Sigma Aldrich) to final concentrations of 25% and 0.5 mM, respectively. This medium, referred to as caMHB-HSD, is approved for use in exebacase AST by the Clinical and Laboratory Standards Institute (CLSI) (CLSI. 2017, Jan. 16-17. AST Subcommittee Working Group Meetings and Plenary. AST Meeting Files & Resources, clsi.org/education/microbiology/ast/ast-meeting-files-resources/. Additional supplementation with 2.5% lysed red blood cells (Remel™, ThermoFisher) was included for analyses of streptococcal isolates, as recommended by CLSI. See CLSI, 2015. Methods for Dilution Antimicrobial Susceptibility Tests for Bacteria That Grow Aerobically, 10th Edition. Clinical and Laboratory Standards Institute, Wayne, Pa.
(§2) Daptomycin (Sigma Aldrich) and vancomycin hydrochloride (Sigma Aldrich) were tested following the reference BMD method for each. See CLSI. 2015. Methods for Dilution Antimicrobial Susceptibility Tests for Bacteria That Grow Aerobically, 10th Edition. Clinical and Laboratory Standards Institute, Wayne, Pa.

S. haemolyticus = assay: MIC by broth microdilution; assay type: cell-based, Staphylococcus haemolyticus; settings: S. haemolyticus, N=36
Description: as §1, §2

S. capitis = assay: MIC by broth microdilution; assay type: cell-based, Staphylococcus capitis; settings: S. capitis, N=13
Description: as §1, §2

S. anginosus = assay: MIC by broth microdilution; assay type: cell-based, Streptococcus anginosus; settings: S. anginosus (viridans), N=10
Description: as §1, §2

S. gordonii = assay: MIC by broth microdilution; assay type: cell-based, Streptococcus gordonii; settings: S. gordonii (viridans), N=11
Description: as §1, §2

S. mitis = assay: MIC by broth microdilution; assay type: cell-based, Streptococcus mitis; settings: S. mitis (viridans), N=18
Description: as §1, §2

S. mutans = assay: MIC by broth microdilution; assay type: cell-based, Streptococcus mutans; settings: S. mutans (viridans), N=22
Description: as §1, §2

S. oralis = assay: MIC by broth microdilution; assay type: cell-based, Streptococcus oralis; settings: S. oralis (viridans), N=15
Description: as §1, §2

S. salivarius = assay: MIC by broth microdilution; assay type: cell-based, Streptococcus salivarius; settings: S. salivarius (viridans), N=12
Description: as §1, §2

S. gallolyticus = assay: MIC by broth microdilution; assay type: cell-based, Streptococcus gallolyticus; settings: S. gallolyticus (bovis), N=19
Description: as §1, §2

S. agalactiae = assay: MIC by broth microdilution; assay type: cell-based, Streptococcus agalactiae; settings: S. agalactiae (group B), N=97
Description: as §1, §2

S. dysgalactiae = assay: MIC by broth microdilution; assay type: cell-based, Streptococcus dysgalactiae; settings: S. dysgalactiae (group G), N=22
Description: as §1, §2

E. faecalis = assay: MIC by broth microdilution; assay type: cell-based, Enterococcus faecalis; settings: E. faecalis (formerly group D), N=18
Description: as §1, §2

MRSA strain MW2 [1] = assay: Infective endocarditis rabbit model, CF-301 in series with daptomycin (Example 2); assay type: in vivo, rabbits
Description: The rational for selection of the daptomycin dose is as follows. Daptomycin pilot dose-response experiments were performed over a range from 1 mg/kg to 10 mg/kg, administered intravenously, once daily for 4 days in the infective endocarditis rabbit model described below, which was caused by the MRSA strain, MW2. FIG. 2 depicts data for individual animals, plotted as treatment regimen versus log10 CFU/g tissue (mean±SEM are shown). From these studies, a daptomycin dose-response was defined. […] In the rabbit infective endocarditis model, a daptomycin-alone dose of 4 mg/kg administered intravenously provided about 0.25 to 1.45 log10 reduction in bacterial burden compared to vehicle-treated controls.
A well-described indwelling transcarotid artery-to-left ventricle catheter-induced model of aortic valve infective endocarditis was used in rabbits. See Xiong et al., 2011, AAC, 55:P5325-5330. At 48 hours after catheter placement, infective endocarditis was induced by intravenous inoculums of about 2×10^5 CFU (the induction of ID95 of MRSA strain MW2 in this model). […] Daptomycin administration was continued once a day for 4 days. At 24 hours after the last dose of daptomycin, animals were humanely euthanized and cardiac vegetations, kidneys, and spleens were sterilely removed and quantitatively cultured. Bacterial density for each organ for the different treatment groups were calculated as mean log10 CFU/g of tissue (±95% confidence interval).

MRSA strain MW2 [2] = assay: Left-sided catheter-induced IE model due to MRSA, CF-301 dose strategies plus DAP (Example 4); assay type: in vivo, rabbits; settings: all CF-301 doses given in addition to DAP
Description: Briefly, female New Zealand White rabbits (Harlan Laboratories; 2.3 to 2.5 kg body weight) underwent transcarotid-transaortic valve catheterization, and IE was induced by IV infection of ˜1-2×10^5 cfu of MW2 at 48 hours (h) after catheterization. […] See also FIG. 4.
On day 5, animals were sacrificed, and target tissues (cardiac vegetations, kidney and spleen) were removed and quantitatively cultured. Tissue MRSA counts are given as the mean log10 CFU/g of tissue±SD).
A two-tailed Student's t test was used to analyze the tissue MRSA counts between different groups. P values <0.05 were considered significant. No adjustment was made for all the P values reported in this study.

[3] = CF-301 0.09 mg/kg 1 hour prior to the initial dose of DAP 4 mg/kg IV QD x 4 days
[4] = CF-301 0.09 mg/kg 2 hours after the initial dose of DAP 4 mg/kg IV QD x 4 days
[5] = CF-301 0.09 mg/kg 2 hours prior to the initial dose of DAP 4 mg/kg IV QD x 4 days
[6] = CF-301 0.09 mg/kg 4 hours after the initial dose of DAP 4 mg/kg IV QD x 4 days
[7] = CF-301 0.09 mg/kg 4 hours prior to the initial dose of DAP 4 mg/kg IV QD x 4 days
[8] = CF-301 0.09 mg/kg immediately after the initial dose of DAP 4 mg/kg IV QD x 4 days

B1: CF-301: anti-staphylococcal lysin encoded within a prophage of the Streptococcus suis genome, SEQ ID NO: 2 with or without initial methionine (protein, listed as Streptococcus suis)
chain: MTTVNEALNNVRAQVGSGVSVGNGECYALASWYERMISPDATVGLGAGVGWVSGAIGDTISAKNIGSSYNWQANGWTVSTSGPFKAGQIVTLGATPGNPYGHVVIVEAVDGDRLTILEQNYGGKRYPVRNYYSAASYRQQVVHYITPPGTVAQSAPNLAGSRSYRETGTMTVTVDALNVRRAPNTSGEIVAVYKRGESFDYDTVIIDVNGYVWVSYIGGSGKRNYVATGATKDGKRFGNAWGTFK
MIC50 (S. lugdunensis): 1 µg/mL | MIC90 (S. lugdunensis): 1 µg/mL | MIC Range (S. lugdunensis): 0.25 to 2 µg/mL | MIC50 (S. haemolyticus): 0.5 µg/mL | MIC90 (S. haemolyticus): 1 µg/mL | MIC Range (S. haemolyticus): 0.25 to 2 µg/mL | MIC50 (S. capitis): 1 µg/mL | MIC90 (S. capitis): 2 µg/mL | MIC Range (S. capitis): 0.25 to 4 µg/mL | MIC50 (S. anginosus): 32 µg/mL | MIC90 (S. anginosus): 64 µg/mL | MIC Range (S. anginosus): 1 to 64 µg/mL | MIC50 (S. gordonii): 4 µg/mL | MIC90 (S. gordonii): 8 µg/mL | MIC Range (S. gordonii): 0.5 to 8 µg/mL | MIC50 (S. mitis): 2 µg/mL | MIC90 (S. mitis): 8 µg/mL | MIC Range (S. mitis): 0.5 to 64 µg/mL | MIC50 (S. mutans): 32 µg/mL | MIC90 (S. mutans): 64 µg/mL | MIC50 (S. oralis): 4 µg/mL | MIC90 (S. oralis): 64 µg/mL | MIC Range (S. oralis): 0.5 to 64 µg/mL | MIC50 (S. salivarius): 2 µg/mL | MIC90 (S. salivarius): 8 µg/mL | MIC Range (S. salivarius): 0.5 to 8 µg/mL | MIC50 (S. gallolyticus): 64 µg/mL | MIC90 (S. gallolyticus): >512 µg/mL | MIC50 (S. agalactiae): 1 µg/mL | MIC90 (S. agalactiae): 2 µg/mL | MIC Range (S. agalactiae): 0.25 to 4 µg/mL | MIC50 (S. dysgalactiae): 1 µg/mL | MIC90 (S. dysgalactiae): 2 µg/mL | MIC Range (S. dysgalactiae): 1 to 2 µg/mL | MIC50 (E. faecalis): 16 µg/mL | MIC90 (E. faecalis): 64 µg/mL | MIC Range (E. faecalis): 1 to 256 µg/mL | MRSA density, Mean Log10 CFU/g tissue ± STD, Kidneys (MRSA strain MW2 [1]; [3]): 3.53 ± 0.59 Log10 CFU/g tissue | MRSA density, Mean Log10 CFU/g tissue ± STD, Spleen (MRSA strain MW2 [1]; [3]): 3.55 ± 0.74 Log10 CFU/g tissue | MRSA density, Mean Log10 CFU/g tissue ± STD, Vegetation (MRSA strain MW2 [1]; [3]): 4.16 ± 0.82 Log10 CFU/g tissue | MRSA density, Mean Log10 CFU/g tissue ± STD, Kidneys (MRSA strain MW2 [1]; [4]): 2.29 ± 0.87 Log10 CFU/g tissue | MRSA density, Mean Log10 CFU/g tissue ± STD, Spleen (MRSA strain MW2 [1]; [4]): 2.23 ± 1.09 Log10 CFU/g tissue | MRSA density, Mean Log10 CFU/g tissue ± STD, Vegetation (MRSA strain MW2 [1]; [4]): 2.25 ± 1.39 Log10 CFU/g tissue | MRSA density, Mean Log10 CFU/g tissue ± STD, Kidneys (MRSA strain MW2 [1]; [5]): 3.48 ± 0.47 Log10 CFU/g tissue | MRSA density, Mean Log10 CFU/g tissue ± STD, Spleen (MRSA strain MW2 [1]; [5]): 3.31 ± 0.57 Log10 CFU/g tissue | MRSA density, Mean Log10 CFU/g tissue ± STD, Vegetation (MRSA strain MW2 [1]; [5]): 3.54 ± 0.68 Log10 CFU/g tissue | MRSA density, Mean Log10 CFU/g tissue ± STD, Kidneys (MRSA strain MW2 [1]; [6]): 3.78 ± 0.51 Log10 CFU/g tissue | MRSA density, Mean Log10 CFU/g tissue ± STD, Spleen (MRSA strain MW2 [1]; [6]): 3.49 ± 0.33 Log10 CFU/g tissue | MRSA density, Mean Log10 CFU/g tissue ± STD, Vegetation (MRSA strain MW2 [1]; [6]): 4.31 ± 0.89 Log10 CFU/g tissue | MRSA density, Mean Log10 CFU/g tissue ± STD, Kidneys (MRSA strain MW2 [1]; [7]): 2.97 ± 0.32 Log10 CFU/g tissue | MRSA density, Mean Log10 CFU/g tissue ± STD, Spleen (MRSA strain MW2 [1]; [7]): 3.18 ± 0.35 Log10 CFU/g tissue | MRSA density, Mean Log10 CFU/g tissue ± STD, Vegetation (MRSA strain MW2 [1]; [7]): 3.45 ± 0.63 Log10 CFU/g tissue | MRSA density, Mean Log10 CFU/g tissue ± STD, Kidneys (MRSA strain MW2 [1]; [8]): 2.77 ± 0.65 Log10 CFU/g tissue | MRSA density, Mean Log10 CFU/g tissue ± STD, Spleen (MRSA strain MW2 [1]; [8]): 2.60 ± 0.17 Log10 CFU/g tissue | MRSA density, Mean Log10 CFU/g tissue ± STD, Vegetation (MRSA strain MW2 [1]; [8]): 3.23 ± 0.36 Log10 CFU/g tissue | MRSA densities in all three target tissues as compared to the controls and daptomycin alone (MRSA strain MW2 [1]; single dose of CF-301 added to daptomycin regimen, all time-points tested): significantly reduced | further reduction of MRSA densities in all target tissues vs DAP alone (MRSA strain MW2 [2]): about 3 log10 cfu/g | reduction of MRSA densities in all target tissues vs vehicle control groups (MRSA strain MW2 [2]): about 6 log10 cfu/g
